This passage reports apparent GTPγS binding rate k of Gαi1 (intrinsic W211 tryptophan fluorescence, nucleotide exchange), Y2R in isotropic bicelles activated with 10 fold excess of NPY, 16°C and apparent GTPγS binding rate k of Gαi1 (intrinsic W211 tryptophan fluorescence, nucleotide exchange), Y2R in non-isotropic bicelles activated with 10 fold excess of NPY, 16°C results from publication PMC5776092.

The experiment has as its target cysteine deficient variant of the human neuropeptide Y receptor type 2 (Y2R), refolded and reconstituted into DMPC/DHPC-c7 bicelles (human) (UniProt P49146).

For the substance “pre-assembled Gαi1β1γ1 heterotrimer (from UniProt P10824 1-354; P62871 1-340; P02698 1-74) (complex)”, the apparent GTPγS binding rate k of Gαi1 (intrinsic W211 tryptophan fluorescence, nucleotide exchange), Y2R in isotropic bicelles activated with 10 fold excess of NPY, 16°C was 0.06 s⁻¹ and the apparent GTPγS binding rate k of Gαi1 (intrinsic W211 tryptophan fluorescence, nucleotide exchange), Y2R in non-isotropic bicelles activated with 10 fold excess of NPY, 16°C turned out to be 0.045 s⁻¹.
